Measured values taken from paper PMC11718236, “The Psu protein of phage satellite P4 inhibits transcription termination factor ρ by forced hyper-oligomerization” (Nature Communications, 2023).

Tests used:
[1] = target: the molecule itself; assay: cryo-EM structure; ρ^P167L-ATPγS-Psu complexes; 10 mM TRIS-HCl pH 8.0, 120 mM KOAc, 5 mM Mg(OAc)2, 5 µM ZnCl2; 1 mM ATPγS; single-particle analysis
[2] = target: transcription termination factor ρ (wild type), non-tagged, purified (E. coli, UniProt P0AG30 1-419); assay: cell-based or functional assay
[3] = target: transcription termination factor ρ P167L variant, non-tagged, purified (E. coli, UniProt P0AG30 1-419, P167L); assay: cell-based or functional assay
[4] = target: T1, Rho P167L;Psu (polarity suppression protein) (Escherichia coli;phage satellite P4, UniProt P0AG30;P05460 1-419;1-190, P167L|); assay: fluorescence anisotropy; Psu added to pre-formed ρP167L-dC15-rU12-FAM complex; RNA not displaced; ADP-BeF3; 20 mM HEPES pH 7.5, 150 mM KCl, 5% glycerol, 5 mM MgCl2, 0.5 mM TCEP; SBS assays with 10 uM unlabeled dC15 and 2 mM ADP-BeF3; probe 5 uM dC15-FAM or 2 uM rU12-FAM; temperature not stated; conditions: protein: recombinant;recombinant; tags: none;none; chain copies: 6;2; label: FAM (fluorescein); single strand
[5] = target: T2, Rho (transcription termination factor ρ, wt);Psu (polarity suppression protein) (Escherichia coli;phage satellite P4, UniProt P0AG30;P05460 1-419;1-190, |); assay: fluorescence anisotropy; SBS; IC50 of Psu as inhibitor (very weak inhibition); dC15-blocked PBS; 2 mM ADP-BeF3; 20 mM HEPES pH 7.5, 150 mM KCl, 5% glycerol, 5 mM MgCl2, 0.5 mM TCEP; SBS assays with 10 uM unlabeled dC15 and 2 mM ADP-BeF3; probe 5 uM dC15-FAM or 2 uM rU12-FAM; temperature not stated; conditions: protein: recombinant;recombinant; tags: none;none; chain copies: 6;2; label: FAM (fluorescein); single strand
[6] = target: T2, Rho (transcription termination factor …); assay: fluorescence anisotropy; PBS; Psu up to 30 uM dimer has no effect; ADP-BeF3; 20 mM HEPES pH 7.5, 150 mM KCl, 5% glycerol, 5 mM MgCl2, 0.5 mM TCEP; SBS assays with 10 uM unlabeled dC15 and 2 mM ADP-BeF3; probe 5 uM dC15-FAM or 2 uM rU12-FAM; temperature not stated; conditions: protein: recombinant;recombinant; tags: none;none; chain copies: 6;2; label: FAM (fluorescein); single strand
[7] = target: T1, Rho P167L;Psu (polarity suppression …); assay: as above; conditions: protein: recombinant;recombinant; tags: none;none; chain copies: 6;2; label: FAM (fluorescein); single strand

B1: phage satellite P4 polarity suppression protein Psu (wild type), purified (natural protein)
chain: MESTALQQAFDTCQNNKAAWLQRKNELAAAEQEYLRLLSGEGRNVSRLDELRNIIEVRKWQVNQAAGRYIRSHEAVQHISIRDRLNDFMQQHGTALAAALAPELMGYSELTAIARNCAIQRATDALREALLSWLAKGEKINYSAQDSDILTTIGFRPDVASVDDSREKFTPAQNMIFSRKSAQLASRQSV
notes: polarity suppression protein Psu of phage satellite P4; No tag is told for the purified protein; also called Psu^wt; wt Psu; source: E. coli BL21 RIL, purified (ammonium sulfate precipitation, heparin, MonoQ, MonoS, Superdex 75 SEC)
- stoichiometry N [1]: 2
- IC50 of Psu for inhibition of rU12-FAM binding at the SBS of ρ^wt (fluorescence anisotropy, with ADP-BeF3 and dC15) [2]: 299 µM
- IC50 of inhibition of the RNA-stimulated ATPase activity of ρ^wt by Psu (TLC, 1 h, 37 °C) [2]: 0.9 µM
- decrease of the ρ^wt ATPase rate at Psu dimer:ρ hexamer 10:1 and 50:1 (1.3-fold and 1.6-fold) [2]: 1.6 fold
- IC50 of Psu for inhibition of rU12-FAM binding at the SBS of ρ^P167L (fluorescence anisotropy, with ADP-BeF3 and dC15) [3]: 2.8 µM
- IC50 of inhibition of the RNA-stimulated ATPase activity of ρ^P167L by Psu (TLC, 1 h, 37 °C) [3]: 0.8 µM
- decrease of the ρ^P167L ATPase rate at Psu dimer:ρ hexamer 10:1 and 50:1 (1.5-fold and 4-fold) [3]: 4 fold

B2: Psu R43A variant, purified (natural protein, phage satellite P4)
chain: MESTALQQAFDTCQNNKAAWLQRKNELAAAEQEYLRLLSGEGANVSRLDELRNIIEVRKWQVNQAAGRYIRSHEAVQHISIRDRLNDFMQQHGTALAAALAPELMGYSELTAIARNCAIQRATDALREALLSWLAKGEKINYSAQDSDILTTIGFRPDVASVDDSREKFTPAQNMIFSRKSAQLASRQSV
- IC50 of inhibition of the RNA-stimulated ATPase activity of ρ^P167L by Psu^R43A (TLC, 1 h, 37 °C) [3]: 12.9 µM

Binder: UUUUUUUUUUUU (ssRNA) [rU12-FAM]
- binding result [4]: binds
- IC50 [5]: 299 µM

Binder: CCCCCCCCCCCCCCC (ssDNA) [dC15-FAM]
- binding result [6]: binds
- binding result [7]: binds
